Data published in patent publication US12723255B2, “Herbicide tolerance genes and methods of use thereof” (priority 2014, dated 2026).

How the values were obtained:
Type in all cases: in vivo
F1 hybrid maize plants [1] = assay: efficacy field trial for 2,4-D tolerance; conditions: scale 0 to 100, with CTP unless label says no CTP; for average injury rating, V4 Growth Stage, 8x 2,4-D / average injury rating, V8 Growth Stage, 8x 2,4-D: 8 lb ae/acre at VE-V2, V4, V8; for average injury rating, V4 Growth Stage, 16x 2,4-D / average injury rating, V8 Growth Stage, 16x 2,4-D: 16 lb ae/acre at VE-V2, V4, V8
Description: (§1) Separate trait efficacy field trials for quizalofop-P and 2,4-D were conducted at two locations cach with F1 hybrid transgenic plants produced by crossing an inbred plant containing maize event MON89034 with an R1 plant containing MON-HT55 (with a CTP), MON-HTI (with or without a CTP), MON-HT2 (with or without a CTP), MON-HT3 (with a CTP), MON-HT4 (with a CTP), MON-HT5 (with a CTP), MON-HT6 (with a CTP), or MON-HT7 (with a CTP). Transgenic F1 hybrid plants containing maize events NK603×MON89034 were used for comparison as a control.
In the efficacy field trial for 2,4-D tolerance, one of four herbicide treatments was used: (1) 2,4-D amine at 2 lb ac/acre (2×) plus 0.25% v/v non-ionic surfactant (NIS) applied to VE to V2 followed by V4 followed by V8; (2) 2,4-D amine at 4 lb ac/acre (4×) plus 0.25% v/v NIS applied to VE to V2 followed by V4 followed by V8; (3) 2,4-D amine at 8 lb ac/acre (8×) plus 0.25% v/v NIS applied to VE to V2 followed by V4 followed by V8 maize; or (4) 2,4-D amine at 16 lb ac/acre (16×) plus 0.25% v/v NIS applied to VE to V2 followed by V4 followed by V8. Plots were visually rated as above. Tables 14 and 15 show the average injury ratings after herbicide application at V4 or V8 growth stage, respectively.

F1 hybrid maize plants [2] = assay: efficacy field trial with segregating F1 hybrid plants; conditions: for % Injury from V4 2,4-D / % Injury from V8 2,4-D: 2,4-D amine 2× at VE-V2 (plus quizalofop-P 0.5×), V4, V8; for % Injury from V4 Quizalofop / % Injury from V8 Quizalofop: quizalofop-P 2× at VE-V2, V4, V8
Description: Ten unique engineered proteins optimized for activity at higher temperatures were selected for maize transformation and analysis in plants. DNA constructs were produced for expressing these engineered proteins with codon usage optimized for monocot expression using methods known to those skilled in the art. Enhancers, promoters, leaders, introns, CTPs, and 3′UTRs were tested in various combinations with the engineered proteins in these DNA constructs. The DNA constructs were used to transform immature maize (LH244) embryos with these vectors using Agrobacterium tumifaciens and standard methods known in the art. Regenerated R0 transgenic plantlets were grown in the green house.
Transgenic R0 maize plants were screened by the application of quizalofop-P (2×) plus 2,4-D (2×) at 7 to 10 days following transplant into plugs (generally corresponding to V3-V4 growth stage). All constructs tested produced plants containing unique events that passed the RO screen. The R0 plants were selfed to generate R1 homozygous seed and the R0 was also used as the male to cross with inbred plants containing maize event MON89034 to generate segregating F1 hybrid seed for efficacy field trials.
An efficacy field trial was conducted with segregating F1 hybrid plants, with 50% hemizygous and 50% null for the transgene. Tolerance to quizalofop-P (2×) plus 2,4-D (2×) was assessed using two herbicide application regimens: (1) quizalofop-P (Assure II) at 0.16 lb ai/acre (2×) plus 0.25% v/v non-ionic surfactant (NIS) applied at VE-V2 growth stage followed by the same at V4 growth stage followed by the same at V8 growth stage and (2) 2,4-D amine at 2 lb ae/acre (2×) plus quizalofop-P at 0.04 lb ai/acre (0.5×) plus 0.25% v/v NIS applied at VE-V2 growth stage followed by 2,4-D amine at 2 lb ae/acre (2×) plus 0.25% v/v NIS applied at V4 growth stage followed by the same at V8 growth stage. The 50% of the plants that were null for transgene were removed by the first quizalofop-P application at VE-V2 growth stage. Plots were visually rated 10-14 days after application for crop injury on a scale of 0 to 100 with “0” being none and “100” being complete crop destruction. […] The percentage injury rating with 2× application of 2,4-D at V8 growth stage ranged from a high of 40% to a low of 0. Similarly, the percentage injury rating with 2× application of quizalofop-P at V8 growth stage ranged from a high of 90% to a low of 0. Variation in injury rating between plants expressing the same protein is likely due to variations in construct design or transgene insertion location.

F1 hybrid maize plants [3] = assay: efficacy field trial for quizalofop-P tolerance and clethodim sensitivity; conditions: scale 0 to 100; for average injury rating, V4 Growth Stage, 4x Quizalofop / average injury rating, V8 Growth Stage, 4x Quizalofop: 0.32 lb ai/acre at VE-V2, V4, V8; for average injury rating, V4 Growth Stage, 4x Quizalofop / average injury rating, V8 Growth Stage, 4x Quizalofop / average injury rating, V4 Growth Stage, 8x Quizalofop / average injury rating, V8 Growth Stage, 8x Quizalofop / average injury rating, V4 Growth Stage, 16x Quizalofop / average injury rating, V8 Growth Stage, 16x Quizalofop: with CTP unless label says no CTP; for average injury rating, V4 Growth Stage, 8x Quizalofop / average injury rating, V8 Growth Stage, 8x Quizalofop: 0.64 lb ai/acre at VE-V2, V4, V8; for average injury rating, V4 Growth Stage, 16x Quizalofop / average injury rating, V8 Growth Stage, 16x Quizalofop: 1.28 lb ai/acre at VE-V2, V4, V8; for average injury rating, V8 Growth Stage, 1x Clethodim: clethodim 0.25 lb ai/acre at V8, volunteer control
Description: as §1
In the efficacy field trial for quizalofop-P tolerance and clethodim sensitivity, one of four herbicide treatments was used: (1) quizalofop-P (Assure II) at 0.32 lb ai/acre (4×) plus 0.25% v/v non-ionic surfactant (NIS) applied at VE-V2 growth stage followed by the same at V4 growth stage followed by the same at V8 growth stage; (2) quizalofop-P at 0.64 lb ai/acre (8×) plus 0.25% v/v NIS applied at VE to V2 growth stage followed by the same at V4 growth stage followed by the same at V8 growth stage; (3) quizalofop-P at 1.28 lb ai/acre (16×) plus 0.25% v/v NIS applied at VE to V2 growth stage followed by the same at V4 growth stage followed by the same at V8growth stage; or (4) clethodim at 0.25 lb ai/acre (1×) plus 0.25% v/v NIS applied at V8 growth stage. Plots were visually rated 10-14 days after application for crop injury on a scale of 0 to 100with “0” being none and “100” being complete crop destruction. Tables 14 and 15 show the average injury ratings after herbicide application at V4 or V8 growth stage, respectively.

B1: MON-HT1: engineered oxygenase protein, amino acid sequence SEQ ID NO:14 (protein)
chain: MHAALTPLTNKYRFIDVQPLTGVLGAEITGVDLREPLDDSTWNEILDAFHTYQVIYFPGQAITNEQHIAFSRRFGPVDPVPILKSIEGYPEVQMIRREANESSRFIGDDWHTDSTFLDAPPAAVVMRAIEVPEYGGDTGFLSMYSAWETLSPTMQATIEGLNVVHSATKVFGSLYQATNWRFSNTSVKVMDVDAGDRETVHPLVVTHPVTGRRALYCNQVYCQKIQGMTDAESKSLLQFLYEHATKFDFTCRVRWKKDQVLVWDNLCTMHRAVPDYAGKFRYLTRTTVAGDKPSR
average injury rating, V4 Growth Stage, 2x 2,4-D (F1 hybrid maize plants [1]; 2 lb ae/acre at VE-V2, V4, V8): 0.0 | average injury rating, V8 Growth Stage, 2x 2,4-D (F1 hybrid maize plants [1]; 2 lb ae/acre at VE-V2, V4, V8): 1.3 | average injury rating, V8 Growth Stage, 2x 2,4-D (F1 hybrid maize plants [1]; 2 lb ae/acre at VE-V2, V4, V8, listed as MON-HT1 (no CTP)): 2.5 | average injury rating, V4 Growth Stage, 4x 2,4-D (F1 hybrid maize plants [1]; 4 lb ae/acre at VE-V2, V4, V8): 0.0 | average injury rating, V8 Growth Stage, 4x 2,4-D (F1 hybrid maize plants [1]; 4 lb ae/acre at VE-V2, V4, V8): 1.5 | average injury rating, V8 Growth Stage, 4x 2,4-D (F1 hybrid maize plants [1]; 4 lb ae/acre at VE-V2, V4, V8, listed as MON-HT1 (no CTP)): 4.0 | average injury rating, V4 Growth Stage, 8x 2,4-D (F1 hybrid maize plants [1]): 5.0 | average injury rating, V8 Growth Stage, 8x 2,4-D (F1 hybrid maize plants [1]): 8.3 | average injury rating, V4 Growth Stage, 8x 2,4-D (F1 hybrid maize plants [1]; listed as MON-HT1 (no CTP)): 5.8 | average injury rating, V8 Growth Stage, 8x 2,4-D (F1 hybrid maize plants [1]; listed as MON-HT1 (no CTP)): 8.8 | average injury rating, V4 Growth Stage, 16x 2,4-D (F1 hybrid maize plants [1]): 6.3 | average injury rating, V8 Growth Stage, 16x 2,4-D (F1 hybrid maize plants [1]): 16.3 | average injury rating, V4 Growth Stage, 16x 2,4-D (F1 hybrid maize plants [1]; listed as MON-HT1 (no CTP)): 12.5 | average injury rating, V8 Growth Stage, 16x 2,4-D (F1 hybrid maize plants [1]; listed as MON-HT1 (no CTP)): 13.8 | % Injury from V4 2,4-D (F1 hybrid maize plants [2]; CTP A): 7.5% | % Injury from V8 2,4-D (F1 hybrid maize plants [2]; CTP A): 5.83% | % Injury from V4 Quizalofop (F1 hybrid maize plants [2]; CTP A): 8.33% | % Injury from V8 Quizalofop (F1 hybrid maize plants [2]; CTP A): 8.33% | % Injury from V4 2,4-D (F1 hybrid maize plants [2]; CTP B): 10% | % Injury from V8 2,4-D (F1 hybrid maize plants [2]; CTP B): 10% | % Injury from V4 Quizalofop (F1 hybrid maize plants [2]; CTP B): 7.5% | % Injury from V8 Quizalofop (F1 hybrid maize plants [2]; CTP B): 8.75% | % Injury from V4 2,4-D (F1 hybrid maize plants [2]; CTP C): 14.09% | % Injury from V8 2,4-D (F1 hybrid maize plants [2]; CTP C): 11.36% | % Injury from V4 Quizalofop (F1 hybrid maize plants [2]; CTP C): 0.45% | % Injury from V8 Quizalofop (F1 hybrid maize plants [2]; CTP C): 0.91% | % Injury from V4 2,4-D (F1 hybrid maize plants [2]; CTP None): 12.86% | % Injury from V8 2,4-D (F1 hybrid maize plants [2]; CTP None): 10.71% | % Injury from V4 Quizalofop (F1 hybrid maize plants [2]; CTP None): 7.14% | % Injury from V8 Quizalofop (F1 hybrid maize plants [2]; CTP None): 7.86% | average injury rating, V4 Growth Stage, 4x Quizalofop (F1 hybrid maize plants [3]): 0.0 | average injury rating, V8 Growth Stage, 4x Quizalofop (F1 hybrid maize plants [3]): 2.0 | average injury rating, V4 Growth Stage, 4x Quizalofop (F1 hybrid maize plants [3]; listed as MON-HT1 (no CTP)): 5.8 | average injury rating, V8 Growth Stage, 4x Quizalofop (F1 hybrid maize plants [3]; listed as MON-HT1 (no CTP)): 3.3 | average injury rating, V4 Growth Stage, 8x Quizalofop (F1 hybrid maize plants [3]): 0.8 | average injury rating, V8 Growth Stage, 8x Quizalofop (F1 hybrid maize plants [3]): 2.0 | average injury rating, V4 Growth Stage, 8x Quizalofop (F1 hybrid maize plants [3]; listed as MON-HT1 (no CTP)): 11.3 | average injury rating, V8 Growth Stage, 8x Quizalofop (F1 hybrid maize plants [3]; listed as MON-HT1 (no CTP)): 7.5 | average injury rating, V4 Growth Stage, 16x Quizalofop (F1 hybrid maize plants [3]): 4.5 | average injury rating, V8 Growth Stage, 16x Quizalofop (F1 hybrid maize plants [3]): 5.5 | average injury rating, V4 Growth Stage, 16x Quizalofop (F1 hybrid maize plants [3]; listed as MON-HT1 (no CTP)): 18.8 | average injury rating, V8 Growth Stage, 16x Quizalofop (F1 hybrid maize plants [3]; listed as MON-HT1 (no CTP)): 16.3 | average injury rating, V8 Growth Stage, 1x Clethodim (F1 hybrid maize plants [3]): 93.3 | average injury rating, V8 Growth Stage, 1x Clethodim (F1 hybrid maize plants [3]; listed as MON-HT1 (no CTP)): 94.5
